Experiments:
[1] = target: native human CD20 on isolated normal human B cells (human) (UniProt P11836); assay: Scatchard analysis, unlabeled against 125I-Fab on human B cells, Donor 4
[2] = target: native human CD20 on isolated normal human B cells (human) (UniProt P11836); assay: Scatchard analysis, unlabeled against 125I-Fab on human B cells, Donor 5
[3] = target: His-tagged human CD20 expressed in E. coli (human) (UniProt P11836); assay: SPR (BIAcore-3000), rituximab Fab immobilised on CM5, CD20 in 0.1% DDM as analyte, 1:1 model
[4] = target: C2S mutant of human CD20 (Cys111Ser, Cys220Ser), His-tagged (human) (UniProt P11836); assay: SPR (BIAcore-3000), rituximab Fab immobilised on CM5, C2S-CD20 in 0.1% DDM as analyte, 1:1 model
[5] = target: C2S mutant of human CD20 (Cys111Ser, Cys220Ser), His-tagged (human) (UniProt P11836); assay: SPR (BIAcore-3000), rituximab Fab immobilised on CM5, affinity purified C2S-CD20 as analyte, 1:1 model
[6] = target: native human CD20 on isolated normal human B cells (human) (UniProt P11836); assay: Scatchard analysis, unlabeled against 125I-IgG on human B cells, Donor 1
[7] = target: native human CD20 on isolated normal human B cells (human) (UniProt P11836); assay: Scatchard analysis, unlabeled against 125I-IgG on human B cells, Donor 2
[8] = target: native human CD20 on isolated normal human B cells (human) (UniProt P11836); assay: Scatchard analysis, unlabeled against 125I-IgG on human B cells, Donor 3
[9] = target: His-tagged human CD20 expressed in E. coli (human) (UniProt P11836); assay: SPR (BIAcore-3000), rituximab IgG immobilised on CM5, CD20 in 0.1% DDM as analyte, 1:1 model
[10] = target: His-tagged human CD20 expressed in E. coli (human) (UniProt P11836); assay: ELISA, CD20 coated on the plate, rituximab titrated, detection with HRP goat anti-human F(ab')2, absorbance 450 nm
[11] = target: human CD20 expressed with the LE leader (LE.CD20), leader and His-tag removed with thrombin (human) (UniProt P11836); assay: as above
[12] = target: human CD20 expressed with the sLE leader (sLE.CD20), leader removed with thrombin (human) (UniProt P11836); assay: as above
Reduced, Reoxidized = assay: ELISA, reduced and re-oxidized CD20 coated on the plate, rituximab titrated, detection with HRP goat anti-human F(ab')2, absorbance 450 nm
Chain of Reduced, Reoxidized (CD20 polypeptide, as listed by the source): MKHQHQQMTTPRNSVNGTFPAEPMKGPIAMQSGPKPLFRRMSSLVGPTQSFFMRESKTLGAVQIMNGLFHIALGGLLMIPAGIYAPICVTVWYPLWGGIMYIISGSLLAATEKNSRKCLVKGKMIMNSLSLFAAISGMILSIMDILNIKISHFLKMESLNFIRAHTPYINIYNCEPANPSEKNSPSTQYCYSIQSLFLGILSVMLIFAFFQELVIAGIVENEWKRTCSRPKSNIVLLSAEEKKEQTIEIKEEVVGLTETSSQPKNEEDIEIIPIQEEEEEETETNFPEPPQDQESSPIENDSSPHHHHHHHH

Work on rituximab Fab yielded a Kd [1] of 52 nM, a Kd [2] of 63 nM and a Ka [3] of 3.5e+06 M⁻¹. It also gave a Kd [3] of 280 nM, a Ka [4] of 4.4e+06 M⁻¹ and a Kd [4] of 230 nM. It also gave a Ka [5] of 5.4e+06 M⁻¹ and a Kd [5] of 190 nM.
For rituximab full length antibody, the Kd [6] was 0.32 nM, the Kd [7] was 0.72 nM and the Kd [8] was 1.27 nM. The Ka [9] was 6.6e+06 M⁻¹, the EC50 (read off the curve) [10] was 0.5 nM and the EC50 (read off the curve) [11] was 0.5 nM. The EC50 (read off the curve) [12] was 0.4 nM and the EC50 (read off the curve) (Reduced, Reoxidized) was 50 nM.
